Measured values from patent publication US20250355001A1, “METHOD FOR DETECTING A TAU PROTEIN FRAGMENT IN A SAMPLE” (GTINVENT LIMITED, priority 2022, published 2025).

Key:
[1] = system: hT40, dGA, dGAE and truncated tau fragments; assay: Binding ELISA / epitope mapping of anti-tau scAbs with truncated tau proteins and 13mer peptides; set-up: species or system human; settings: for Short epitope on hT40: Table 18, '3a' & '3b' series scAbs; for hT40 binding region: second Table 25, mAb format; for Tau proteins/fragments with positive scAb reactivity: binding ELISA; for Shortest region bound on hT40: incl. 13mer peptides
Description: A series of binding ELISA was performed using various truncated versions of the tau protein and 13mer peptide libraries spanning the entire hT40 molecule for mapping the epitopes of anti-tau scAbs (Full list of protein antigens used is given in Table 14). In general, ELISA plates were coated with 1 μg/ml hT40 or dGA or dGAE or other truncated versions of the protein and in the case of biotinylated peptides, plates were coated with 5 μg/ml Streptavidin followed by 1 μg/ml biotinylated peptide. The plates were blocked with 2% MPBS and scAb samples added at desired starting concentrations and double diluted across the plate. Binding was detected using anti-Human C Kappa HRP conjugated secondary antibody and the resulting immunoreaction was developed and absorbance values measured as described above.
Selected E specific scAbs and their specific binding to dGAE is shown below (FIG. 8A-E).
Similarly, dGA binding ‘NS’, ‘S’ and ‘M’ group scAbs were subjected to further antigen binding ELISA using shorter tau proteins and biotinylated 13mer peptides as shown below (FIG. 10A-F) and (FIG. 11A-R).

[2] = molecular target: T1, hT40 (T441, SEQ ID NO: 1) (Homo sapiens, UniProt P10636); assay: Biacore X100 SPR kinetics of scAbs for hT40; assay type: binding
T1 construct: Full length tau (hT40)
Description: Surface plasmon resonance (SPR) is widely regarded as the gold standard for real time measurement of protein-protein interactions such as antibody binding. All SPR experiments were carried out using a Biacore X100 machine and HBS EP+ running buffer (GE Healthcare). A ‘capture’ method was followed for affinity measurements, where an anti-human constant kappa chain (HuCk) antibody was conjugated to the surface of a CM5 sensor chip using an amine coupling kit and scAb molecules were immobilised via their HuCk domain. Amine coupling is a very common approach for immobilising the ligand to the chip surface. […] The capture antibody was diluted 1/100 in 10 mM Sodium acetate buffer pH 5.0 and passed over the activated chip surface for a period of at least 420 s. Final ligand immobilisation levels over 12,000 RU were deemed to be satisfactory.
Following immobilisation, the level of each scAb to be captured was identified using the standard SPR equation with a theoretical RMax of 100 RU. Analyte MW refers to the molecular weight of hT40 or dGA/dGAE molecules, while ligand MW refers to the molecular weight of the scAbs tested. RL is the desired capture level and S refers to the stoichiometric ratio:
The scAb to be tested was added only to flow cell 2 so that flow cell 1 could act as a control to subtract any interaction with the analyte and the chip surface. Both single and multi-cycle runs were utilised using wizards developed in the Biacore X100 control software which are both accepted methods of kinetic analysis (Karlsson, R., et al. Analyzing a kinetic titration series using affinity biosensors (2006) Analytical Biochemistry 349:136-47). The multi-cycle protocol was as follows-Three start-up cycles composed of an initial capture, to the desired level, of the scAb to be tested was performed followed by a 30 s injection of glycine buffer pH 2.0 after each cycle to regenerate the chip surface. […] Following three start-up cycles increasing concentrations (0.15625 nM-100 nM) of the target to be tested were added to the chip surface after the desired scAb capture. The target was added for a 120 s association period and 420 s dissociation period followed by another regeneration, 30 s injection of glycine buffer pH 2.0 in between each cycle.
The single cycle kinetics protocol was similar and utilised the same level of scAb capture. Three start-up cycles were used followed by 5 increasing concentrations of the analyte (6.25 nM-100 nM) for an association period of 120 s followed by a dissociation period of 420 s for each concentration. In single cycle kinetics the regeneration step was performed only after the final analyte concentration was added. Binding responses were analysed in Biacore X100 evaluation software and data fitted to a 1:1 binding model to obtain kinetic and affinity characterisation.

[3] = molecular target: T2, htau40 (Homo sapiens, UniProt P10636); assay: Biacore X100 SPR kinetics of anti-tau mAbs on immobilised htau40; assay type: binding
T2 construct: Full length tau (hT40)
Description: For anti-tau mAb SPR measurements, htau40 was conjugated to the surface of a CM5 sensor chip using amine coupling as explained previously. Briefly, 2 μg/mL htau40 in 10 mM Sodium acetate buffer (pH 4.0) was passed over the activated chip surface (EDC/NHS) in flow cell 2 for a period for 45 s followed by blocking with 1 M ethanolamine-HCl PH 8.5. Flow cell 1 was set up as reference control and blocked simultaneously. Final immobilisation level of htau40 (Rmax) was approximately 250 RU. Following a minimum of three start-up cycles, increasing concentrations (0.78 nM-25 nM) of the mAb in HBS-EP+ buffer was added at a rate of […] to the chip. The mAb was added for a 120 s association period and 600 s dissociation period followed by a regeneration cycle of 30 s injection of glycine buffer pH 1.5 in between each cycle. Binding responses were analysed in Biacore X100 evaluation software and data fitted to a 1:1 binding model to obtain kinetic and affinity characterisation.
For anti-tau mAb SPR measurements (Biacore X100™) and epitope mapping, the same methodologies described above (see Example 16) were followed. Kinetic rates and equilibrium binding constants of additional anti-tau mAbs and the regions recognised on hT40 are given in the Table 25 below

[4] = residue numbers of SEQ ID NO: 1 (hT40), CDR Tables 1-11
[5] = Table 25, '3a' and '3b' scAbs, hT40
[6] = second Table 25, newly converted mAbs, hT40
[7] = Table 26 summary, top scAbs, residues of hT40
[8] = Table 23, scAb captured, T441 (hT40) analyte, 1:1 model
[9] = Table 27, mAb format, immobilised htau40

T1 sequence (P10636 1-441 isoform P10636-8): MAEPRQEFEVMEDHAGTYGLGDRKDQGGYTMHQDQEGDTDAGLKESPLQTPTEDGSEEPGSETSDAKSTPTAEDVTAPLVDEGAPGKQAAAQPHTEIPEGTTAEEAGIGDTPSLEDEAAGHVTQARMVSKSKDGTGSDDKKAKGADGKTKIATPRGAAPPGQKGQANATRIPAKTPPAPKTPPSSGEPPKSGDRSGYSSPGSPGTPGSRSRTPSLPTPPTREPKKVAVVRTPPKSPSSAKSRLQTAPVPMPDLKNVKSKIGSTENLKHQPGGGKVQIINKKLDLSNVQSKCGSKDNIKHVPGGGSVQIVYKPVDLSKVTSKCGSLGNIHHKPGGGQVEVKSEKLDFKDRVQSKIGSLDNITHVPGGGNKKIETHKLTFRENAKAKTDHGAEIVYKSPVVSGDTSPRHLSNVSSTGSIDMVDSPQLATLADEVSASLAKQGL
T2 sequence (P10636 1-441 isoform P10636-8): as above

B1: 3bG4: N-terminal anti-tau clone, Table 6; SEQ ID NO: 425 (protein)
chain: QVQLQESGPSLVKPSQTLSLTCTISGFSLISNGVGWVRQAPGKVPEWVGDIASSGKAYSNPALKSRLSITRDTSKSQVSLSLRSVTTEDTAVYYCVRCRDGGVTYGYDIDYWGPGLLVTVSSEGKSSGASGESKVDDQAVLTQPSSVSKSLGQSVSITCSGSTSNVGSGNDVSWFQQVPGSAPKLLFYGATNRASGVPDRFSGSRSGNTATLTITSLQAEDEADYYCGSYDSNSGGIFGSGTRLTVLG
modifications: 3bG4 amino acid sequence
Short epitope on hT40 [1]: 1-49
Epitope [1, 4]: 1-49
hT40 binding region [1]: 1-15
Binding region hT40 ([1]; second Table 26, own antibodies): (Binding region hT40 1-15)
ka [2, 5]: 6.669e+06 M⁻¹ s⁻¹
kd [2, 5]: 0.05966 s⁻¹
ka [3, 6]: 4.54e+06 M⁻¹ s⁻¹
kd [3, 6]: 0.0002964 s⁻¹

B2: 3bD11: anti-tau clone, Table 10; SEQ ID NO: 637 (protein)
scFv: RVRLQGSGPSLVKPSQTLSLTCTVSGFSFDSYYVGWVRQAPGKALEWLGNIYSTGRAFYNPALKSRLSITRDTSKSQVSLSVSSVTIEDTALYYCVRGSYYHGGGNGMVDFFDYWSPGLLVTVSSEGKSSGASGESKVDDQVVRTQPSSVSGSLGQRVSITCSGSSSNVGYGNYVGWFQQVPGSAPKLLIYAATSRASGVPDRFSGSRSGNTATLTIDSLQAEDEADYYCSSYQRGNTGVFGSGTRLTVLG
Epitope [1, 4]: 37-49
hT40 binding region [1]: 37-49
ka [3, 6]: 2.671e+06 M⁻¹ s⁻¹
kd [3, 6]: 0.003979 s⁻¹

B3: 3aH6: N-terminal anti-tau clone, Table 6; SEQ ID NO: 423 (protein)
chain: QVQLQESGPSLVKPSQTLSLTCTVSGFSLSSNGVGWVRQAPGKVPEWLGDISSVGKKYANPALKSRLSFTRDTSKSQVSLSLSSVTTEDTAVYYCVKCRDGGVTYGYDIDYWGPGLLVTASSEGKSSGASGESKVDDQAVVTQPSSVSGSLGQSVSITCSGSSGNVGYGDYVSWFQQFHGSAPKLLIYGATNLASGVPARFSGSRSGNTATLTISSLHAEDEADYYCASYDSSSGGVFGSGTRLTVLG
modifications: 3aH6 amino acid sequence
Short epitope on hT40 [1]: 1-49
Epitope [1, 4]: 1-49
hT40 binding region [1]: 1-15
ka [2, 5]: 2.757e+06 M⁻¹ s⁻¹
kd [2, 5]: 0.009868 s⁻¹
ka [3, 6]: 3.128e+06 M⁻¹ s⁻¹
kd [3, 6]: 0.0001522 s⁻¹

B4: 3aG3: N-terminal anti-tau clone, Table 6; SEQ ID NO: 424 (protein)
chain: QVQLQESGPSLVKPSQTLSLTCTVSGFSLSSNGVGWVRQAPGKVPEWVGDISSSGKAYANPALKSRLSITRDTAKTQVFLSLSSVTTEDTAVYYCVRCRDGGVSYGYDIDYWGPGLLVTVSSEGKSSGASGESKVDDQAVLTQPPSVSGSPGQRVSITCSGSSSNIGGGNYLSWFQQVPGSAPKLLIYGATSRASGVPDRFSGSRSGNTATLTISSLQAEDEADYYCASFDTSSGGIFGAGTRLTVLG
modifications: 3aG3 amino acid sequence
Short epitope on hT40 [1]: 1-49
Epitope [1, 4]: 1-49
hT40 binding region [1]: 1-15
ka [2, 5]: 62940 M⁻¹ s⁻¹
kd [2, 5]: 0.0003869 s⁻¹
ka [3, 6]: 1.532e+07 M⁻¹ s⁻¹
kd [3, 6]: 0.004751 s⁻¹

B5: MD9: anti-tau clone, Table 10; SEQ ID NO: 373 (protein)
scFv: QVRLQESGPSLVKSSQTLSLTCTVSGFSLTRESIAWVRQAPGKVPEWLGGVGIDGTSYYSPALKSRLSITRDTSKSQASLSLSSVATEDTAMYYCARNYIDFEYWGPGLLVTVSSEGKSSGASGESKVDDQAVLTQLSSVSGSLGQRISITCSGSSSNVGIYDVSWFQQLPGSGLRTVIYGTNNRPSGVPDRFSGSRSGNTATLTISSLQSEDEAIYYCAAGDSSTIAVFGSGTRLTVLG
modifications: MD9 amino acid sequence
Tau proteins/fragments with positive scAb reactivity ([1]; Table 16, NS, S and M clones): hT40, 297-390 (dGA), 297-391 (dGAE), 369-390, 369-391
Shortest region bound on hT40 ([1]; Table 16, NS, S and M clones): 373-385
Epitope [1, 7]: 373-385
Epitope [1, 4]: 373-385
hT40 binding region [1]: 373-385
ka [3, 6]: 66200 M⁻¹ s⁻¹
kd [3, 6]: 0.001462 s⁻¹

B6: CC7: human-specific anti-tau clone, Table 10; SEQ ID NO: 365 (protein)
scFv: QVQLQESGPSLVKPSQTLSLTCTVSGFSLTSNAVIWVRQAPGKAPEWVALIDVDGDAAYDPALKSRLSITRDTSKSQVSLSLRSVTTEDTAVYYCARDYGSWGYVSDIDYWGPGLLVTVSSEGKSSGASGESKVDDRVVRTQPSSVSGSLGQRVSITCSGSYITGSSVGWFQQVPGSGLKTVIYDNNDRPSGVPDRFSGSKSGDTATLTISSLQAEDEADYYCASYDTSNIGLFGSGTRLTVLG
modifications: CC7 amino acid sequence
Tau proteins/fragments with positive scAb reactivity ([1]; Table 17, 'C' group scAbs): hT40, 1-319
Shortest region bound on hT40 ([1]; Table 17, 'C' group scAbs): 145-157
Epitope [1, 7]: 145-157
Detection scAb (Epitope) ([1]; Table 28 (LoD table), residues of hT40): CC7 (145-157)
binding region on hT40 ([1]; amino acid residues of hT40): 145-157
Epitope [1, 4]: 145-157
ka [2, 8]: 295700 M⁻¹ s⁻¹
kd [2, 8]: 0.0003659 s⁻¹
ka [3, 9]: 4.576e+06 M⁻¹ s⁻¹
kd [3, 9]: 0.03164 s⁻¹
